Laboratory results published in patent US20100272750A1.

Experiments:
[1] = target: HLA DRB1*0301 (human); experiment: competition with 125I probe peptide, purified HLA
[2] = target: HLA DRB1*0401 (human); experiment: competition with 125I probe peptide, purified HLA
[3] = target: HLA DRB4*0101 (human); experiment: competition with 125I probe peptide, purified HLA
[4] = target: HLA A0201 (human); experiment: 125I-probe competition, purified HLA
[5] = target: HLA A0206 (human); experiment: 125I-probe competition, purified HLA
[6] = target: HLA A0202 (human); experiment: 125I-probe competition, purified HLA
[7] = target: HLA A0203 (human); experiment: 125I-probe competition, purified HLA
[8] = target: HLA A6802 (human); experiment: 125I-probe competition, purified HLA
[9] = target: HLA A0301 (human); experiment: 125I-probe competition, purified HLA
[10] = target: HLA A3301 (human); experiment: 125I-probe competition, purified HLA
[11] = target: HLA A6801 (human); experiment: 125I-probe competition, purified HLA
[12] = target: HLA A3101 (human); experiment: 125I-probe competition, purified HLA
[13] = target: HLA A1101 (human); experiment: 125I-probe competition, purified HLA
[14] = target: HLA DRB1*0901 (human); experiment: competition with 125I probe peptide, purified HLA
[15] = target: HLA DRB1*1201 (human); experiment: competition with 125I probe peptide, purified HLA
[16] = target: HLA DRB1*0802 (human); experiment: competition with 125I probe peptide, purified HLA
[17] = target: HLA DRB1*0404 (human); experiment: competition with 125I probe peptide, purified HLA
[18] = target: HLA DRB1*0405 (human); experiment: competition with 125I probe peptide, purified HLA
[19] = target: HLA DRB5*0101 (human); experiment: competition with 125I probe peptide, purified HLA
[20] = target: HLA DRB1*1501 (human); experiment: competition with 125I probe peptide, purified HLA
[21] = target: HLA DRB1*0701 (human); experiment: competition with 125I probe peptide, purified HLA
[22] = target: HLA DRB1*1101 (human); experiment: competition with 125I probe peptide, purified HLA
[23] = target: HLA DRB1*0101 (human); experiment: competition with 125I probe peptide, purified HLA
[24] = target: HLA DRB1*1302 (human); experiment: competition with 125I probe peptide, purified HLA

Binder	IC50 [4] [nM]	IC50 [5] [nM]	IC50 [6] [nM]	IC50 [7] [nM]	IC50 [8] [nM]	IC50 [9] [nM]	IC50 [10] [nM]	IC50 [11] [nM]	also measured
LDLQPETTDLYCYEQ (modifications not checked) [HPV16.E7.13 HTL epitope]	–	–	–	–	–	–	–	–	IC50 [1]: 590 nM; IC50 [2]: 1900 nM; IC50 [3]: 17 nM
FIYIPLFVI (modifications not checked) [HPV31.E5.66]	26	8.1	97	47	157	–	–	–	–
YTNWKFIYL (modifications not checked) [HPV31.E2.131]	69	84	14	31	146	–	–	–	–
YVVWDSIYYI (modifications not checked) [HPV45.E2.137]	77	20	27	248	30	–	–	–	–
MVMLMLVRFK (modifications not checked) [HPV31.E1.253]	–	–	–	–	–	10	20	10	–
STWHWTGCNK (modifications not checked) [HPV45.E2.322]	–	–	–	–	–	14	428	18	IC50 [12]: 54 nM; IC50 [13]: 2.8 nM
VAWDSVYYM (modifications not checked) [HPV18.E2.136]	172	790	603	1330	5150	–	–	–	–
FLLCFCVLL (modifications not checked) [HPV31.E5.15]	9.6	2.6	13	34	237	–	–	–	–
STAAALYWYR (modifications not checked) [HPV31.E1.294]	–	–	–	–	–	198	47	12	IC50 [12]: 5.6 nM; IC50 [13]: 10 nM
KVSEFRWYRY (modifications not checked) [HPV31.E6.72]	–	–	–	–	–	213	338	192	IC50 [12]: 3 nM; IC50 [13]: 25 nM
FHSIAGQYRGQCNTC (modifications not checked) [HPV45.E6.127 HTL epitope]	–	–	–	–	–	–	–	–	IC50 [14]: 1990 nM; IC50 [15]: 10100 nM; IC50 [16]: 7640 nM; IC50 [17]: 3300 nM; IC50 [2]: 8.6 nM; IC50 [18]: 358 nM; IC50 [3]: 1300 nM; IC50 [19]: 43 nM; IC50 [20]: 574 nM; IC50 [21]: 2400 nM; IC50 [22]: 416 nM; IC50 [23]: 107 nM
WKHMRLECAIYYKAR (modifications not checked) [HPV16.E2.033 HTL epitope]	–	–	–	–	–	–	–	–	IC50 [14]: 6340 nM; IC50 [16]: 90 nM; IC50 [1]: 437 nM; IC50 [17]: 6860 nM; IC50 [2]: 245 nM; IC50 [18]: 557 nM; IC50 [24]: 248 nM; IC50 [3]: 766 nM; IC50 [19]: 280 nM; IC50 [20]: 1390 nM; IC50 [21]: 504 nM; IC50 [22]: 2400 nM; IC50 [23]: 701 nM
